According to PMC3068626, “Cholesterol utilization in mycobacteria is controlled by two TetR-type transcriptional regulators: kstR and kstR2”:

B1: Rv3557c/Rv3558 probe, DIG-labelled (dsDNA)
DNA 1: GCTGGCCGAGCAAGCGCTTGGTTGATAGTC
DNA 2: GACTATCAACCAAGCGCTTGCTCGGCCAGC
B2: Rv3557c/Rv3558 probe (dsDNA)
DNA 1: B1 DNA 1
DNA 2: B1 DNA 2
B3: Rv3549c/Rv3550 probe (dsDNA)
DNA 1: GCGTACCAAGCAAGTGCTTGCTTAGGTAGC
DNA 2: GCTACCTAAGCAAGCACTTGCTTGGTACGC
B4: Rv3560c/Rv3561 probe (dsDNA)
DNA 1: GCTAACCTACCAAGCACTTGCTTTGTTAGG
DNA 2: CCTAACAAAGCAAGTGCTTGGTAGGTTAGC

Columns and labels:
KstR2Mtb [1] = molecular target: T1, KstR2Mtb (Mycobacterium tuberculosis, UniProt P9WMB9 1-200); experiment: EMSA; 20 mM Tris/HCl pH 8.0, 10 mM MgCl2, 75 mM NaCl, 20 min at 37 C; […]; details: protein: recombinant; tags: none in EMSA (His6 tag removed with TEV protease); chain copies: 2; label: 3' DIG-11-ddUTP (end-labelled)
KstR2Mtb [2] = molecular target: T1, KstR2Mtb; experiment: EMSA; 1 uM DNA, 6 uM protein, 10 mM MgCl2; 20 mM Tris/HCl pH 8.0, 10 mM MgCl2, 75 mM NaCl, 20 min at 37 C; […]; details: protein: recombinant; tags: none in EMSA (His6 tag removed with TEV protease); chain copies: 2; label: none (ethidium bromide stain); blunt

T1 sequence (P9WMB9 whole entry): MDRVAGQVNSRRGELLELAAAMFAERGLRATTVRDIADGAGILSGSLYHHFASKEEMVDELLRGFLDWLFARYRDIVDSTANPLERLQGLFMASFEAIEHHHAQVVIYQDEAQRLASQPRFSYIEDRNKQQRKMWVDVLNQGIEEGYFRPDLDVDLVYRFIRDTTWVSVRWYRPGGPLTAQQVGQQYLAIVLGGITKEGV

Binder | binding result (KstR2Mtb [1]) | binding result (KstR2Mtb [2])
B1 | binds | –
B2 | – | binds
B3 | – | binds
B4 | – | binds
